Data taken from patent publication US20170183403A1.
Like-named read-outs stand apart in the source and are kept apart here. Each block holds one binder with its values, some of them ahead of it.

Assays:
Reference peptide no. 54 [1] = assay: peptide microarray (RepliTope), Ala mutagenesis set
Reference peptide no. 53 [2] = assay: as above
murine IL-2 (mouse) = murine IL-2 (mouse) (UniProt P04351); assay: SPR, MAB602 amine-coupled on chip, mIL-2 at 1 nM or more
Reference peptide no. 44 = biological target: T1, Reference peptide no. 44; assay: peptide microarray (RepliTope), Ala mutagenesis set
T1 sequence (peptide): PKLTRMLTAKFYMPK

Reference peptide no. 10 [3] = biological target: T2, Reference peptide no. 10; assay: as above
T2 sequence (peptide): INNYKNPKLTRMLTF

Reference peptide no. 47 = biological target: T3, Reference peptide no. 47; assay: as above
T3 sequence (peptide): YKNPKLTRMLTFKFA

Reference peptide no. 53 [4] = assay: as above; remark: listed apart in the source
Reference peptide no. 43 = biological target: T4, Reference peptide no. 43; assay: as above
T4 sequence (peptide): YKNPKLTRMLTAKFY

Reference peptide no. 54 [5] = assay: as above; remark: listed apart in the source
Reference peptide no. 11 [6] = biological target: T5, Reference peptide no. 11; assay: as above
T5 sequence (peptide): YKNPKLTRMLTFKFY

Reference peptide no. 12 [7] = biological target: T6, Reference peptide no. 12; assay: as above
T6 sequence (peptide): PKLTRMLTFKFYMPK

Reference peptide no. 48 = biological target: T7, Reference peptide no. 48; assay: as above
T7 sequence (peptide): PKLTRMLTFKFAMPK

Reference peptide no. 45 = biological target: T8, Reference peptide no. 45; assay: as above
T8 sequence (peptide): TRMLTAKFYMPKKAT

Reference peptide no. 52 = biological target: T9, Reference peptide no. 52; assay: as above
T9 sequence (peptide): YKNPKLTRMLTAKFA

Reference peptide no. 42 = biological target: T10, Reference peptide no. 42; assay: as above
T10 sequence (peptide): INNYKNPKLTRMLTA

Reference peptide no. 49 = biological target: T11, Reference peptide no. 49; assay: as above
T11 sequence (peptide): TRMLTFKFAMPKKAT

Reference peptide no. 13 [8] = biological target: T12, Reference peptide no. 13; assay: as above
T12 sequence (peptide): TRMLTFKFYMPKKAT

[9] = biological target: human interleukin-2 (human) (UniProt P60568); assay: sandwich ELISA, biotinylated MAB602 on hIL-2 captured by coated 5344, no competitor
Sequence of human interleukin-2 (human) (P60568 21-153 limits assumed): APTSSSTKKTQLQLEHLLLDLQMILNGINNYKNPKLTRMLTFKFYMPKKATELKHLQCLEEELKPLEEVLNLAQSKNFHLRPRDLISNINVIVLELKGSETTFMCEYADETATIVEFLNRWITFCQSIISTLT

Reference peptide no. 10 [10] = biological target: T2, Reference peptide no. 10; assay: peptide microarray (RepliTope)
Reference peptide no. 24 = biological target: T13, Reference peptide no. 24; assay: peptide microarray (RepliTope)
T13 sequence (peptide): LNLAQSKNFHLRPRD

Reference peptide no. 26 = biological target: T14, Reference peptide no. 26; assay: peptide microarray (RepliTope)
T14 sequence (peptide): KNFHLRPRDLISNIN

Reference peptide no. 25 = biological target: T15, Reference peptide no. 25; assay: peptide microarray (RepliTope)
T15 sequence (peptide): AQSKNFHLRPRDLIS

Reference peptide no. 23 = biological target: T16, Reference peptide no. 23; assay: peptide microarray (RepliTope)
T16 sequence (peptide): EEVLNLAQSKNFHLR

Reference peptide no. 11 [11] = biological target: T5, Reference peptide no. 11; assay: peptide microarray (RepliTope)
Reference peptide no. 12 [12] = biological target: T6, Reference peptide no. 12; assay: peptide microarray (RepliTope)
Reference peptide no. 13 [13] = biological target: T12, Reference peptide no. 13; assay: peptide microarray (RepliTope)
Reference peptide no. 22 = biological target: T17, Reference peptide no. 22; assay: peptide microarray (RepliTope)
T17 sequence (peptide): KPLEEVLNLAQSKNF

[14] = biological target: human interleukin-2 (human) (UniProt P60568); assay: SPR, antibody amine-coupled on GLM chip, hIL-2 in solution

Sequence of murine IL-2 (mouse) (P04351 21-169 limits assumed): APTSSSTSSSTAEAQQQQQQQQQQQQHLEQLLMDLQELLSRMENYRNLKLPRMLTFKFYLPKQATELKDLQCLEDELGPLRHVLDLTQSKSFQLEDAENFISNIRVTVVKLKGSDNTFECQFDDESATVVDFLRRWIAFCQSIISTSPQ

B1: NARA1 (antibody, mouse IgG2a, kappa)
heavy: QVQLQQSGAELVRPGTSVKVSCKASGYAFTNYLIEWVKQRPGQGLEWIGVINPGSGGTNYNEKFKGKATLTADKSSSTAYMQLSSLTSDDSAVYFCARWRGDGYYAYFDVWGAGTTVTVSSAKTTAPSVYPLAPVCGDTTGSSVTLGCLVKGYFPEPVTLTWNSGSLSSGVHTFPAVLQSDLYTLSSSVTVTSSTWPSQSITCNVAHPASSTKVDKKIEPRGPTIKPCPPCKCPAPNLLGGPSVFIFPPKIKDVLMISLSPIVTCVVVDVSEDDPDVQISWFVNNVEVHTAQTQTHREDYNSTLRVVSALPIQHQDWMSGKEFKCKVNNKDLPAPIERTISKPKGSVRAPQVYVLPPPEEEMTKKQVTLTCMVTDFMPEDIYVEWTNNGKTELNYKNTEPVLDSDGSYFMYSKLRVEKKNWVERNSYSCSVVHEGLHNHHTTKSFSRTPGK
light: not shown
- signal intensity after subtraction of control signal (Reference peptide no. 54 [1]): 0 AU
- signal intensity after subtraction of control signal (Reference peptide no. 53 [2]): 24 AU

- response units (RU) (murine IL-2 (mouse)): > 10 RU
- absorbance (OD450) [9]: 1.1 OD450
- signal intensity after subtraction of control signal (Reference peptide no. 10 [10]): 46000 AU
- signal intensity after subtraction of control signal (Reference peptide no. 24): 3290 AU
- signal intensity after subtraction of control signal (Reference peptide no. 26): 7510 AU
- signal intensity after subtraction of control signal (Reference peptide no. 25): 5220 AU
- signal intensity after subtraction of control signal (Reference peptide no. 23): 13300 AU
- signal intensity after subtraction of control signal (Reference peptide no. 11 [11]): 49700 AU
- signal intensity after subtraction of control signal (Reference peptide no. 12 [12]): 28800 AU
- signal intensity after subtraction of control signal (Reference peptide no. 13 [13]): 5250 AU
- signal intensity after subtraction of control signal (Reference peptide no. 22): 5000 AU
- Kd [14]: 9.7 nM
- koff [14]: 0.000494 s⁻¹
B2: MAB602 (antibody, from another filing, IgG2a, V domains shown)
VH: EVQLQESGPGLVAPSQSLSITCTVSGFSLTNYDISWIRQPPGKGLEWLGVIWTGGGTNYNSGFMSRLSITKDNSKSQVFLKMNSLQTDDTAIYYCVRQGRTPYWGQGTLVTVSA
VL: DIQVTQSPSSLSVSLGDRVTITCKASKDIYNRLAWYQQKPGNAPRLLISGATSLETGVPSRFSGSGSGKDYTLTITSLQTEDVATYYCQQFWGTPYTFGGGTKLEIKR
- signal intensity after subtraction of control signal (Reference peptide no. 44): 5030 AU
- signal intensity after subtraction of control signal (Reference peptide no. 10 [3]): 46000 AU
- signal intensity after subtraction of control signal (Reference peptide no. 47): 21400 AU
- signal intensity after subtraction of control signal (Reference peptide no. 53 [4]): 0 AU
- signal intensity after subtraction of control signal (Reference peptide no. 43): 42800 AU
- signal intensity after subtraction of control signal (Reference peptide no. 54 [5]): 0 AU
- signal intensity after subtraction of control signal (Reference peptide no. 11 [6]): 49700 AU
- signal intensity after subtraction of control signal (Reference peptide no. 12 [7]): 28800 AU
- signal intensity after subtraction of control signal (Reference peptide no. 48): 13400 AU
- signal intensity after subtraction of control signal (Reference peptide no. 45): 0 AU
- signal intensity after subtraction of control signal (Reference peptide no. 52): 13100 AU
- signal intensity after subtraction of control signal (Reference peptide no. 42): 246 AU
- signal intensity after subtraction of control signal (Reference peptide no. 49): 3020 AU
- signal intensity after subtraction of control signal (Reference peptide no. 13 [8]): 5250 AU
